Laboratory results from publication PMC7617965, “Interaction with AK2A links AIFM1 to cellular energy metabolism” (Molecular cell, 2025).
No end group written: not given here.

Legend:
[1] = target: endogenous AIFM1 (human (endogenous in HEK293)) (UniProt O95831); test: SEC; native lysates of HEK293 cells (WT, AIFM1 KO, AIFM1 KO with AIFM1-HA, AK2 KO with AK2A or AK2B; cycloheximide 4 h in one panel) on HiLoad 16/600 Superdex 200; fractions analysed by immunoblot, in part after a thiol shift with mmPEG24
MIA40 (Homo sapiens) = MIA40 (Homo sapiens) (UniProt Q8N4Q1); settings: cited from earlier work
AIFM1(103-613) [2] = target: T1, AIFM1(103-613) (human, UniProt O95831 103-613); test: cell-based or functional assay
AIFM1(103-613) [3] = target: T1, AIFM1(103-613); test: SEC; AIFM1 incubated with AK2A, MIA40 or the interaction site peptides with NADH; unbound NADH removed by gel filtration; samples at 0 and 7 h analysed by gel filtration, absorbance at 280 nm; settings: both partners purified
AIFM1(103-613) [4] = target: T1, AIFM1(103-613); test: SEC; purified proteins, AIFM1 to AK2 or MIA40 1:2 to 1:4, 100 mM NaCl, 20 mM Tris/Cl pH 7.4, with 0.1 mM NADH, 20 min, 4°C, Superdex 200; settings: both partners purified

For “adenylate kinase 2 (AK2), endogenous (from UniProt P54819 1-239) (enzyme)”, the percent of AK2 in the fractions of the complex [1] was 5%.

For AIFM1 (from UniProt O95831), the Kd (MIA40 (Homo sapiens)) is given as 180 nM.

B1: MIA40 WT peptide (peptide)
peptide: SYSRQEGKDRIIFVTKEDHETPSSAELVA-NH2
notes: N-terminal region of MIA40 (CHCHD4); serine stands at position 4 where MIA40 has C4; also called MIA40 peptide; source: synthetic peptide
With B1 the “apparent kcat of the NADH:DCIP oxidoreductase activity of AIFM1 with the peptide (3.3 μM); AIFM1 alone 0.50 s^−1 (H2O)” value (AIFM1(103-613) [2]) was 0.89 s⁻¹ and the “half-life (t1/2) of the complex after removal of excess NADH” value (shortened to “half-life (t1/2) of the complex”) (AIFM1(103-613) [3]) was over 7 h.

B2: AK2A WT peptide (peptide)
peptide: ATSKDLVMFI-NH2
notes: C-terminus of AK2 isoform A; serine stands where AK2A bears C232; also called AK2A peptide; source: synthetic peptide
In the case of B2, the “apparent kcat of the NADH:DCIP oxidoreductase activity of AIFM1 with the peptide (3.3 μM); AIFM1 alone 0.37 s^−1 (DMSO)” value (AIFM1(103-613) [2]) is reported as 0.71 s⁻¹ and the “half-life (t1/2) of the complex” value (AIFM1(103-613) [3]) is reported as over 7 h.

B3: MIA40 C4S,C53S,C55S (natural protein, UniProt Q8N4Q1 1-142, looked up)
chain: MSYSRQEGKDRIIFVTKEDHETPSSAELVADDPNDPYEEHGLILPNGNINWNSPSLGGMASGPCGEQFKSAFSCFHYSTEEIKGSDCVDQFRAMQECMQKYPDLYPQEDEDEEEEREKKPAEQAEETAPIEATATKEEEGSS
notes: MIA40 (CHCHD4) with C4S, C53S and C55S; Only aa 2-20 are seen in the cryo-EM map; also called MIA40 SPS; purified MIA40; source: E. coli Rosetta2 (DE3), purified (Ni Sepharose)
In the case of B3, the “stoichiometry N” value (AIFM1(103-613) [4]) is reported as 2 per AIFM1 dimer and the “half-life (t1/2) of the complex” value (AIFM1(103-613) [3]) is reported as over 7 h.
